Experimental data taken from article PMC8752827, “Towards a generic prototyping approach for therapeutically-relevant peptides and proteins in a cell-free translation system” (Nature Communications, 2022).

Molecular target: Trypsin
Experiment: trypsin-inhibitory assay (residual enzyme activity on a fluorogenic substrate); 100 pM trypsin pre-incubated with peptide (twofold dilution series) for 3 h at room temperature in 0.1 M NaCl, 10 mM CaCl2, 0.005% Triton X-100, 0.1 M Tris-HCl pH 8.0; residual activity with 10 uM Boc-Q-A-R-7-amido-4-methyl-coumarin; IC50 from a nonlinear fit of initial velocities (Prism)

Sequence of Trypsin (P00760 24-246): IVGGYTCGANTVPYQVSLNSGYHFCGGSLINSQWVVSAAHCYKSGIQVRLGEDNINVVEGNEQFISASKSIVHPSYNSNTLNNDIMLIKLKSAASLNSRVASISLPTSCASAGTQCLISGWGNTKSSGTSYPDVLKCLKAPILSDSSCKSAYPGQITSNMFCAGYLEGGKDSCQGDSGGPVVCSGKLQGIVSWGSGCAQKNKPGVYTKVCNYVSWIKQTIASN

cell-free synthesized linear oxidized circularly permuted SFTI (prmSFTI) (peptide)
IC50: 0.332 nM

chemically synthesized backbone-cyclic sunflower trypsin inhibitor (SFTI) (peptide)
IC50: 0.171 nM

chemically synthesized linear oxidized circularly permuted SFTI (prmSFTI) (peptide)
IC50: 0.361 nM
